In paper PMC2673426:
pKd: −log10 of the molar value.

Columns and labels:
[1] = biological target: T1, dSBP2 (Drosophila melanogaster) (UniProt Q9VSH1); experiment: EMSA
T1 sequence: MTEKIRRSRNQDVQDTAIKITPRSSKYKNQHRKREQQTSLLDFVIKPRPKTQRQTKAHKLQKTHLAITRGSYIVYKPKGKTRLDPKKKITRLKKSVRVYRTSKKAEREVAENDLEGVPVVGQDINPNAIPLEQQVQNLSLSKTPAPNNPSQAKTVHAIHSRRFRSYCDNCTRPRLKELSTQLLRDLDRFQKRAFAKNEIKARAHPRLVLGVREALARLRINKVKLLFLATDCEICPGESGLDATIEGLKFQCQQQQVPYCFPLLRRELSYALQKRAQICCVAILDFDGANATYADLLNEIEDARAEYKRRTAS

hSBP2 (Homo sapiens) = biological target: T2, hSBP2 (Homo sapiens) (UniProt Q96T21); experiment: EMSA
T2 sequence: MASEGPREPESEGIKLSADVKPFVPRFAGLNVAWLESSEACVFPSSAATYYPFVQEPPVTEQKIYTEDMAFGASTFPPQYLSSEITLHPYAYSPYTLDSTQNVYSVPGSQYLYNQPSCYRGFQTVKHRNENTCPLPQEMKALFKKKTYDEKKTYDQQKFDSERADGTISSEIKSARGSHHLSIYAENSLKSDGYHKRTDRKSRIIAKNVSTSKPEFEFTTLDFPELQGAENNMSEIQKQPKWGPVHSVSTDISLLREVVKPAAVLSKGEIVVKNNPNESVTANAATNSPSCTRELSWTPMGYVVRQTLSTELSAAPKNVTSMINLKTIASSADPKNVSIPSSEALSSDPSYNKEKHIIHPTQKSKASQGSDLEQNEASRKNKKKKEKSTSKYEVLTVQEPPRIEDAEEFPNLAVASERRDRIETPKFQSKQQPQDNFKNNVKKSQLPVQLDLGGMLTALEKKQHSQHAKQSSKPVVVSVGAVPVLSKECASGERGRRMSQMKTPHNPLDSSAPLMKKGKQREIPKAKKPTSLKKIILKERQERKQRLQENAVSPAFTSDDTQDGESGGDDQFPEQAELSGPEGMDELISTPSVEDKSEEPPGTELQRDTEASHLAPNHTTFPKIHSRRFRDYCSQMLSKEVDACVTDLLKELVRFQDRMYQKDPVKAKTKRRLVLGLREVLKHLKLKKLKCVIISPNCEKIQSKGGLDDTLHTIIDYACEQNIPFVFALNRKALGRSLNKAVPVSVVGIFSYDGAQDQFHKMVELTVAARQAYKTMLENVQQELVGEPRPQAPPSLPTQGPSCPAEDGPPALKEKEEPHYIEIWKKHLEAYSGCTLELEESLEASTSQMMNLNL

Row | Substance | pKd [1] | pKd (hSBP2 (Homo sapiens))
1 | dSelK SECIS (form 2) | 6.59 | –
2 | dSelH SECIS (form 2) | 6.77 | –
3 | GPx1 SECIS (form 1) | – | 6.40
